Results published in patent US20090149339A1 (published 2009).
Ends that are not written are not given here. * marks the point of attachment. Biotin = O=C1N[C@H]2[C@H](CS[C@H]2CCCCC(=O)*)N1

Columns and labels:
Assay in all cases: A/G assays
[1] = molecular target: GST-PTN-4 PDZ domain fusion protein (protein-tyrosine phosphatase meg1 AA774-862; PDZ domain 1 of 1) (UniProt P08515 1-218 = GST)
[2] = molecular target: T1, GST-TAX33 PDZ domain fusion protein (tax interaction protein 33 AA73-162; PDZ domain 1 of 1) (UniProt P08515 1-218 = GST)
T1 construct: also called TX33

[3] = molecular target: GST-prIL16 PDZ domain fusion protein (putative interleukin 16 precursor AA170-383; PDZ domains 1-2 of 2) (UniProt P08515 1-218 = GST)
[4] = molecular target: T2, GST-CASK PDZ domain fusion protein (CASK AA495-584; PDZ domain 1 of 1) (mouse, UniProt P08515 1-218 = GST)
T2 construct: also called mCASK

[5] = molecular target: T3, GST-NeDLG PDZ domain fusion protein (presynaptic protein sao102, neuroendocrine-dlg; PDZ domains 1-2 of 3) (UniProt P08515 1-218 = GST)
T3 construct: also called NeDLG1

[6] = molecular target: GST-MINT3 PDZ domain fusion protein (human MINT3 AA11-52; PDZ domain 1 of 1) (human, UniProt P08515 1-218 = GST)
[7] = molecular target: T4, GST-SYN1a PDZ domain fusion protein (alpha1-syntrophin AA96-189; PDZ domain 1 of 1) (UniProt P08515 1-218 = GST)
T4 construct: also called SYN 1 alpha; SYNTR 1 alpha

[8] = molecular target: T5, GST-KIAA0316 PDZ domain fusion protein (KIAA0316 AA197-284; PDZ domain 1 of 1) (UniProt P08515 1-218 = GST)
T5 construct: also called K316

[9] = molecular target: GST-TIAM1 PDZ domain fusion protein (T-lymphoma invasion and metastasis inducing protein 1 AA1001-1088); PDZ 1 … (UniProt P08515 1-218 = GST)
[10] = molecular target: T6, GST-TAX2 PDZ domain fusion protein (human tax interaction protein 2 AA54-140; PDZ domain 1 of 1) (human, UniProt P08515 1-218 = GST)
T6 construct: also called TX 2

[11] = molecular target: T7, GST-KIAA0303 PDZ domain fusion protein (KIAA0303 AA652-742; PDZ domain 1 of 1) (UniProt P08515 1-218 = GST)
T7 construct: also called K303

[12] = molecular target: GST-PSD95 PDZ domain fusion protein (human post-synaptic density protein 95 AA387-724; PDZ domains 1-3 of 3) (human, UniProt P08515 1-218 = GST)
[13] = molecular target: T8, GST-KIAA0559 PDZ domain fusion protein (KIAA0559 AA766-870; PDZ1 of 1) (UniProt P08515 1-218 = GST)
T8 construct: also called K559

[14] = molecular target: T9, GST-TAX40 PDZ domain fusion protein (human tax interaction protein 40 AA35-137; PDZ domain 1 of 1) (human, UniProt P08515 1-218 = GST)
T9 construct: also called TX 40

[15] = molecular target: GST-AF6 PDZ domain fusion protein (af-6 protein AA985-1077; PDZ domain 1 of 1) (UniProt P08515 1-218 = GST)
[16] = molecular target: T10, GST-TAX43 PDZ domain fusion protein (human tax interaction protein 43 AA15-85; PDZ domain 1 of 1) (human, UniProt P08515 1-218 = GST)
T10 construct: also called TX 43

[17] = molecular target: GST-LIM PDZ domain fusion protein (Human LIM protein AA29-112; PDZ domain 1 of 1) (human, UniProt P08515 1-218 = GST)
[18] = molecular target: T11, GST-41.8 kD PDZ domain fusion protein (hypothetical 41.8 kD protein AA4-85; PDZ domain 1 of 1) (UniProt P08515 1-218 = GST)
T11 construct: also called hypoth

[19] = molecular target: T12, GST-RGS12 PDZ domain fusion protein (human regulator of G-protein signalling 12 AA35-103; PDZ domain 1 of 1) (human, UniProt P08515 1-218 = GST)
T12 construct: also called RSG12

[20] = molecular target: GST-MPP1 PDZ domain fusion protein (55 Kd erythrocyte membrane protein AA101-186; PDZ domain 1 of 1) (UniProt P08515 1-218 = GST)
[21] = molecular target: GST-LIMK2 PDZ domain fusion protein (human LIM domain kinase 2 AA185-275; PDZ domain 1 of 1) (human, UniProt P08515 1-218 = GST)
[22] = molecular target: T13, GST-MPP2 PDZ domain fusion protein (maguk p55 subfamily member 2 (DLG2) AA185-273; PDZ domain 1 of 1) (UniProt P08515 1-218 = GST)
T13 construct: also called MMP2

[23] = molecular target: T14, GST-CBP PDZ domain fusion protein (Cytohesin binding protein HE AA85-175; PDZ domain 1 of 1) (UniProt P08515 1-218 = GST)
T14 construct: also called Prot

[24] = molecular target: GST-DVL1 PDZ domain fusion protein (human dishevelled segment polarity protein homolog AA248-340); PDZ domain … (human, UniProt P08515 1-218 = GST)
[25] = molecular target: GST-NOS1 PDZ domain fusion protein (human neuronal nitric oxide synthase; PDZ domain 1 of 1) (human, UniProt P08515 1-218 = GST)

Measured: binding result

Chain of GST-PSD95 PDZ domain fusion protein (human post-synaptic density protein 95 AA387-724; PDZ domains 1-3 of 3) (P08515 1-218, tags or fused parts left off): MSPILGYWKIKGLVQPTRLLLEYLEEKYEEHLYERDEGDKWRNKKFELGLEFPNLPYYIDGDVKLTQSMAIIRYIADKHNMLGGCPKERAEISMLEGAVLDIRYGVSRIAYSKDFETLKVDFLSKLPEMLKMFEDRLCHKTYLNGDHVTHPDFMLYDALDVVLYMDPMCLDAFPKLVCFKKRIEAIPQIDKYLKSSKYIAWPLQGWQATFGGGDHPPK
T7 sequence (P08515 1-218, tags or fused parts left off): as above
T6 sequence (P08515 1-218, tags or fused parts left off): as above
T5 sequence (P08515 1-218, tags or fused parts left off): as above
T10 sequence (P08515 1-218, tags or fused parts left off): as above
T13 sequence (P08515 1-218, tags or fused parts left off): as above
Chain of GST-PTN-4 PDZ domain fusion protein (protein-tyrosine phosphatase meg1 AA774-862; PDZ domain 1 of 1) (P08515 1-218, tags or fused parts left off): as above
T14 sequence (P08515 1-218, tags or fused parts left off): as above
T11 sequence (P08515 1-218, tags or fused parts left off): as above
T2 sequence (P08515 1-218, tags or fused parts left off): as above
T12 sequence (P08515 1-218, tags or fused parts left off): as above
T9 sequence (P08515 1-218, tags or fused parts left off): as above
Chain of GST-prIL16 PDZ domain fusion protein (putative interleukin 16 precursor AA170-383; PDZ domains 1-2 of 2) (P08515 1-218, tags or fused parts left off): as above
Chain of GST-DVL1 PDZ domain fusion protein (human dishevelled segment polarity protein homolog AA248-340); PDZ domain … (P08515 1-218, tags or fused parts left off): as above
Chain of GST-MPP1 PDZ domain fusion protein (55 Kd erythrocyte membrane protein AA101-186; PDZ domain 1 of 1) (P08515 1-218, tags or fused parts left off): as above
Chain of GST-MINT3 PDZ domain fusion protein (human MINT3 AA11-52; PDZ domain 1 of 1) (P08515 1-218, tags or fused parts left off): as above
T8 sequence (P08515 1-218, tags or fused parts left off): as above
T4 sequence (P08515 1-218, tags or fused parts left off): as above
T1 sequence (P08515 1-218, tags or fused parts left off): as above
Chain of GST-TIAM1 PDZ domain fusion protein (T-lymphoma invasion and metastasis inducing protein 1 AA1001-1088); PDZ 1 … (P08515 1-218, tags or fused parts left off): as above
T3 sequence (P08515 1-218, tags or fused parts left off): as above

B1: CC CKR-3 C-terminal PL peptide AA43L, biotinylated (peptide)
peptide: Biotin-LERTSSVSPSTAEPELSIVF
no binding: [1] | [2] | [3] | [4] | [5] | [6] | [7] | [8] | [9] | [10] | [11] | [12] | [13] | [14] | [15] | [16] | [17] | [18] | [19] | [20] | [21] | [22] | [23] | [24] | [25]

B2: CLASP-4 C-terminal PL peptide AA3L-V, biotinylated (peptide)
peptide: Biotin-CAISGTSSDRGYGSPRYAEV
no binding: [1] | [2] | [3] | [4] | [6] | [7] | [8] | [9] | [10] | [11] | [13] | [14] | [16] | [17] | [19] | [20] | [21] | [22] | [23] | [24] | [25]

B3: CC CKR-2 C-terminal PL peptide AA42L, biotinylated (peptide)
peptide: Biotin-GKGKSIGRAPEASLQDKEGA
no binding: [1] | [2] | [3] | [4] | [5] | [6] | [7] | [8] | [9] | [10] | [11] | [12] | [13] | [14] | [15] | [16] | [17] | [18] | [19] | [20] | [21] | [22] | [23] | [24] | [25]

B4: CD5 C-terminal PL peptide AA49L, biotinylated (peptide)
peptide: Biotin-SMQPDNSSDSDYDLHGAQRL
no binding: [1] | [2] | [3] | [4] | [5] | [6] | [7] | [8] | [9] | [10] | [11] | [12] | [13] | [14] | [15] | [16] | [17] | [18] | [19] | [20] | [21] | [22] | [23] | [24] | [25]

B5: CD148 C-terminal PL peptide AA55L (ends KTIA), biotinylated (peptide)
peptide: Biotin-TIYENLAPVTTFGKTIA
no binding: [1] | [2] | [3] | [4] | [5] | [6] | [7] | [8] | [9] | [10] | [11] | [12] | [13] | [14] | [15] | [16] | [17] | [18] | [19] | [20] | [21] | [22] | [23] | [24] | [25]

B6: LPAP C-terminal PL peptide AA30L, biotinylated (peptide)
peptide: Biotin-AWDDSARAAGGQGLHVTAL
no binding: [1] | [2] | [3] | [4] | [5] | [6] | [7] | [8] | [9] | [10] | [11] | [12] | [13] | [14] | [15] | [16] | [17] | [18] | [19] | [20] | [21] | [22] | [23] | [24] | [25]
